In article PMC6399351, “Cationic Intrinsically Disordered Antimicrobial Peptides (CIDAMPs) Represent a New Paradigm of Innate Defense with a Potential for Novel Anti-Infectives” (Scientific Reports, 2019):
Where two headings read alike, the source gives them in different places. Ends that are not written are not given here.

Assays:
[1] = test system: Burkholderia cepacia ATCC 25416; settings: CFU assay, 10 mM NaP, pH 5.5, 0.25% glucose
[2] = test system: Enterococcus faecium DSM 2146; settings: CFU assay, 10 mM NaP, pH 5.5, 0.25% glucose
[3] = test system: Acinetobacter baumannii ATCC 19606; assay: CO-ADD MIC, broth microdilution (CLSI); assay type: cell-based; settings: Mueller–Hinton broth, 5 × 10^5 CFU/mL, 18 h 37 °C, by CO-ADD
Source text: (§1) They were defined as the lowest peptide
(§2) Further details of the screening

[4] = test system: Pseudomonas aeruginosa ATCC 27853; assay: CO-ADD MIC, broth microdilution (CLSI); assay type: cell-based; settings: Mueller–Hinton broth, 5 × 10^5 CFU/mL, 18 h 37 °C, by CO-ADD
Source text: as §1, §2

C. albicans ATCC 24433 = assay: CFU assay of antimicrobial activity; assay type: cell-based, Candida albicans; settings: 10 mM NaP
Method: Bacteria were cultivated in either brain heart infusion medium (BHI), lysogeny broth (LB) or tryptic soy broth (TSB)[88]. If not otherwise stated, bacteria were incubated under shaking conditions (37 °C at 170 rpm) or as indicated on the ATCC- or DSM-data sheets. Candida albicans was cultured for 3 days on Yeast Extract-Peptone Dextrose (YPD) agar at 30 °C and yeast suspensions at appropriate density were treated with CIDAMPs as indicated.
(§3) All purified peptides and recombinant proteins were applied using a colony forming unit (CFU) assay in different media. Bacteria were grown to early log-phase in BHI, washed either with 10 mM Na-P, pH 7.4/1% TSB or pH 5.5/1% TSB, or pH 5.5 without TSB or BHI, and adjusted to a concentration of 10^4–10^5 colony forming units (CFU)/ml. For cell number control, 100 µl aliquots were diluted 1:10, 1:100 and 1:1000 and plated in duplicates on BHI agar plates. To 100 µl aliquots of the bacteria, suspended in the respective medium (10 mM Na-P buffer pH 7,0–7,4/ 1% (w/v) TSB; 10 mM Na-P buffer pH 5,5/ 1% (w/v) TSB; 10 mM Na-P buffer pH 7,0–7,4/ 1% (w/v) TSB pH 7,0–7,4/ 0,25% (w/v) glucose; 10 mM Na-P buffer pH 5,5/ 0,25% (w/v) glucose, respectively), 10 µl of a solution of the peptide or protein (two-fold dilutions, from 300 µg/ml or 150 µg/ml down to 19 ng/ml), dissolved in 0.01% (v/v) acetic acid, were added.
(§4) Then bacteria were incubated for 2 h at ambient temperature, if not otherwise stated. 10 µl of 0.01% (v/v) acetic acid, added to 100 µl aliquots of the bacteria in the respective medium, served as negative control. From each test, 1:10 and 1:100 dilutions were generated and plated as duplicates of 100 µl aliquots on BHI agar plates. After 16 h incubation at 37 °C, CFU were counted using a colony counter (Bio Kobe, Japan) and expressed as mean of the duplicate estimation to achieve a complete dose-response curve. All experiments were performed at serial dilutions in a concentration range of 100 µg/mL −25 ng/mL for recombinant HRNR fragments and 300 or 150 µg/mL–19 ng/mL for synthetic peptides.

P. aeruginosa ATCC 10145 = settings: CFU assay
[5] = test system: Klebsiella pneumonia ATCC 700603; settings: MDR strain; CLSI, Mueller–Hinton broth, 5 × 10^5 CFU/mL, 18 h 37 °C, by CO-ADD
[6] = test system: Streptococcus pyogenes ATCC 12344; assay: CFU assay of antimicrobial activity; assay type: cell-based; settings: 10 mM NaP, pH 6.0, 0.25% glucose
Method: as §3, with “[…];” for “10 mM Na-P buffer pH 5,5/ 1% (w/v) TSB;”
as §4

[7] = test system: Streptococcus pneumoniae ATCC 33400; assay: CFU assay of antimicrobial activity; assay type: cell-based; settings: 10 mM NaP, pH 6.5, 0.25% glucose
Method: as §3, with “[…];” for “10 mM Na-P buffer pH 5,5/ 1% (w/v) TSB;”
as §4

E. coli ATCC 11775 = assay: CFU assay of antimicrobial activity; assay type: cell-based, Escherichia coli; settings: 10 mM NaP
Summary of the method: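 Early log-phase bacteria grown in BHI were exposed at 10^4–10^5 CFU/ml for 2 h at ambient temperature. Two-fold serial dilutions spanned 300 or 150 µg/mL–19 ng/mL (synthetic peptides) or 100 µg/mL–25 ng/mL (recombinant HRNR fragments), and colonies were counted after 16 h at 37 °C.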

[8] = test system: Acinetobacter baumannii ATCC 19606; settings: CFU assay, 10 mM NaP, pH 6.0, 0.25% glucose
[9] = test system: Staphylococcus aureus ATCC 43300; settings: MRSA; CLSI, Mueller–Hinton broth, 5 × 10^5 CFU/mL, 18 h 37 °C, by CO-ADD
E. coli ATCC 25922 = assay: CO-ADD MIC, broth microdilution (CLSI); assay type: cell-based, Escherichia coli; settings: Mueller–Hinton broth, 5 × 10^5 CFU/mL, 18 h 37 °C, by CO-ADD
Source text: as §1, §2

S. aureus ATCC 6538 = settings: CFU assay, 10 mM NaP, pH 5.5, 0.25% glucose
[10] = test system: Cryptococcus neoformans ATCC 208821; assay: CO-ADD MIC, antifungal assay (CLSI); assay type: cell-based; settings: Yeast Nitrogen Base broth, 24 h 35 °C, by CO-ADD
Method: (§5) Fungi strains were cultured for 3 days on Yeast Extract-Peptone Dextrose (YPD) agar at 30 °C. A yeast suspension of 1 × 10^6 to 5 × 10^6 cells/mL (as determined by OD530) was prepared from five colonies. These stock suspensions were diluted with Yeast Nitrogen Base (YNB) broth to a final concentration of 2.5 × 10^3 CFU/mL. […] Plates were covered and incubated at 35 °C for 24 h without shaking.

[11] = test system: Candida albicans ATCC 90028; assay: CO-ADD MIC, antifungal assay (CLSI); assay type: cell-based; settings: Yeast Nitrogen Base broth, 24 h 35 °C, by CO-ADD
Method: as §5

[12] = test system: Proteus mirabilis ATCC 21100; settings: CFU assay, 10 mM NaP, pH 6.0, 0.25% glucose
trypsin = assay type: in vitro ADME; settings: for digestion by trypsin: 500 ng, 0.7 nM protease, pH 7.5, 15 h, Western blot
Source text: (§6) All data shown are representatives (n = 3).
(§7) Lane 16 (“without protease”)
(§8) Table 1) have been directly applied. Note the presence of multiple bands, which originate
(§9) from oligomeric HRNR-complexes12. Data shown are representatives (n=3).

Lys-C = target: T1, Lys-C (Lysobacter enzymogenes, UniProt Q7M135); assay: Protease sensitivity testing of HRNR; assay type: in vitro ADME; settings: n = 3
T1 construct: purchased Roche
T1 sequence (Q7M135 whole entry): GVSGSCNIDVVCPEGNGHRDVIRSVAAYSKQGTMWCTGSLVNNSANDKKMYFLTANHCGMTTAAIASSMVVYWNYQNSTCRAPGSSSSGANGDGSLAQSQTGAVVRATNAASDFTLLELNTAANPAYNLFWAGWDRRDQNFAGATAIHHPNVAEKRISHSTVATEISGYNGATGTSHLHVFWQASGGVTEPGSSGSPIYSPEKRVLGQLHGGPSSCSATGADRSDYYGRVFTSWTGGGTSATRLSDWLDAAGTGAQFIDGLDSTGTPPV
Source text: as §6
Thereafter samples were subjected to a
Data shown are representatives
as §7, §8, §9

collagenase = settings: 1 µg, 1 h 37 °C, SDS-PAGE, silver staining; at higher concentrations, n = 3
KLK1 = target: T2, KLK1 (Homo sapiens, UniProt P06870); assay: Protease sensitivity testing of HRNR; assay type: in vitro ADME; settings: 500 ng, 0.7 nM protease, pH 7.5, 15 h, Western blot, n = 3
T2 construct: purchased R&D
T2 sequence (P06870 25-262): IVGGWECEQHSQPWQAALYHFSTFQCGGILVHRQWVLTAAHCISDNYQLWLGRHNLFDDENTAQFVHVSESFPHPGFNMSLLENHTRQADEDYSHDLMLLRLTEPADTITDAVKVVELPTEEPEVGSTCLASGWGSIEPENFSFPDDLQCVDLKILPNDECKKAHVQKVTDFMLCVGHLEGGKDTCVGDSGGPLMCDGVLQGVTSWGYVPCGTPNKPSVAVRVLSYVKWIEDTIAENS
Method: as §7
(§10) Table 1) have been directly applied. Note the presence of multiple bands, which originate from oligomeric HRNR-complexes12. Data shown are representatives (n=3).
(§11) Supplementary Fi gur e 14 :
(§12) For SDS-PAGE analyses 250 ng of […]
(§13) manner, however in the absence of a protease. […]
(§14) have been directly applied. Note a marked decrease of PAD1-deiminated rHRNR2591-2684 electromobility (lane 16) relative to rHRNR2591-2684 (lane 17). D ata shown are represent a tives

KLK7 = target: T3, KLK7 (Homo sapiens, UniProt P49862); assay: Protease sensitivity testing of HRNR; assay type: in vitro ADME; settings: 500 ng, 0.7 nM protease, pH 7.5, 15 h, Western blot, n = 3
T3 construct: purchased R&D
T3 sequence (P49862 30-253): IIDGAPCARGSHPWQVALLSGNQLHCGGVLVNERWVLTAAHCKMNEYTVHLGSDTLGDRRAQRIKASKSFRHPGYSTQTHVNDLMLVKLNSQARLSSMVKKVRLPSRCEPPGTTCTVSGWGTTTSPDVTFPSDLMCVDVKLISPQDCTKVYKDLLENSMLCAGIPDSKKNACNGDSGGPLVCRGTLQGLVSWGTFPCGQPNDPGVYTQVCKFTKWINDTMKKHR
Method: as §7, §10, §11, §12, §13, §14

enterokinase EKMax = target: T4, enterokinase EKMax (Bos taurus, UniProt P98072); assay: Protease sensitivity testing of HRNR; assay type: in vitro ADME; settings: 10 µg, 18 h 37 °C, 0,1 U to 0,0001 U, SDS-PAGE and HRNR Western blot, n = 3
T4 construct: purchased Invitrogen
T4 sequence (P98072 801-1035 limits assumed): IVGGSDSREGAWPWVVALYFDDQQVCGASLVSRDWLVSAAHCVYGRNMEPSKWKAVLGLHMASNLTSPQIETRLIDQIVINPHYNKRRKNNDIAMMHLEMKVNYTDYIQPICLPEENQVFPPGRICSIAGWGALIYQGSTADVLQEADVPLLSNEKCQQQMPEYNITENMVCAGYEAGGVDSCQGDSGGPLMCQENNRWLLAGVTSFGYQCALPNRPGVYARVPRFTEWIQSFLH
Source text: as §6

thermolysin = thermolysin (Bacillus thermoproteolyticus, UniProt P00800); settings: 10 µg, 18 h 37 °C, 10 ng to 10 pg, SDS-PAGE and HRNR Western blot, n = 3
Chain of thermolysin (P00800 233-548): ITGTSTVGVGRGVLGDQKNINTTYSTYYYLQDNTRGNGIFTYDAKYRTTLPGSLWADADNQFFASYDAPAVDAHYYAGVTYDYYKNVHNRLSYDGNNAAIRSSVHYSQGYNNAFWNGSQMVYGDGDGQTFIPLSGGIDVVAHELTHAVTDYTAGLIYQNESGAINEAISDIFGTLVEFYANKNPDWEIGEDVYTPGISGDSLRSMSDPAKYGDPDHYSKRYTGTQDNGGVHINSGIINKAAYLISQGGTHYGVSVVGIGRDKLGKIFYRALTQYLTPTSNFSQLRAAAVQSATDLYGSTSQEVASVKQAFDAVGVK

α-chymotrypsin = test system: T5, α-chymotrypsin; assay: Protease sensitivity testing of HRNR; assay type: in vitro ADME, human; settings: 10 µg, 18 h 37 °C, 1 ng to 1 pg, SDS-PAGE and HRNR Western blot, n = 3
T5 construct: purchased Sigma
T5 sequence (P17538 34-164 limits assumed, other chains not shown): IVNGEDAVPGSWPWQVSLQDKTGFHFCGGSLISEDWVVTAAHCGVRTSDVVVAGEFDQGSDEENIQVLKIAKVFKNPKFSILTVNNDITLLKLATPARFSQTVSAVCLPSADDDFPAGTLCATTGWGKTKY
T5 sequence (P17538 167-263 limits assumed, other chains not shown): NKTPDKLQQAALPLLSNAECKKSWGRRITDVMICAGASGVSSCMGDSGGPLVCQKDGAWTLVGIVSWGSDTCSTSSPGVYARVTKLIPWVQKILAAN
Source text: as §6

[13] = 10 mM NaP, pH 5.5, 0.25% glucose

## GRHGSGLGHSSSHGQHGSGSGR [HR 1-18]
[1]
  LD90: >300 µg/mL
[2]
  LD90: 150 µg/mL
[3]
  Minimal inhibitory concentration (MIC): >32 µg/mL
[4]
  Minimal inhibitory concentration (MIC): >32 µg/mL
C. albicans ATCC 24433; pH 5.5, 0.25% glucose
  LD90: 18.8 µg/mL
C. albicans ATCC 24433; pH 5.5, 1% TSB
  LD90: 150 µg/mL
P. aeruginosa ATCC 10145; [13]
  LD90: 0.038 µg/mL
P. aeruginosa ATCC 10145; 10 mM NaP, pH 5.5, 1% TSB
  LD90: 0.15 µg/mL
P. aeruginosa ATCC 10145; 10 mM NaP/0.25% glucose/pH 5.5, 1% TSB
  LD90: 1.18 µg/mL
P. aeruginosa ATCC 10145; 10 mM NaP/0.25% glucose/pH 5.5, 3% TSB
  LD90: 37.5 µg/mL
P. aeruginosa ATCC 10145; 10 mM NaP/0.25% glucose/pH 5.5, 10% TSB
  LD90: > 300 µg/mL
[5]
  Minimal inhibitory concentration (MIC): >32 µg/mL
[6]
  LD90: >300 µg/mL
[7]
  LD90: >300 µg/mL
E. coli ATCC 11775; pH 5.5, 1% TSB
  LD90: >300 µg/mL
[8]
  LD90: 1.18 µg/mL
[9]
  Minimal inhibitory concentration (MIC): >32 µg/mL
E. coli ATCC 25922
  Minimal inhibitory concentration (MIC): >32 µg/mL
S. aureus ATCC 6538
  LD90: >300 µg/mL
[10]
  Minimal inhibitory concentration (MIC): >32 µg/mL
[11]
  Minimal inhibitory concentration (MIC): >32 µg/mL
[12]
  LD90: >300 µg/mL

B1: rHRNR2591–2684: recombinant HRNR fragment (protein, UniProt Q86YZ3 2591-2684, looked up, fragment)
chain: SQHGSGSGHSSGYGQHGSRSGQSSRGERHGSSSGSSSHYGQHGSGSRQSSGHGRQGSGSGQSPSRGRHGSGLGHSSSHGQHGSGSGRSSSRGPY
C. albicans ATCC 24433; pH 5.5, 0.25% glucose
  LD90: 0.39 µg/mL
  LD100: 6.25 µg/mL
P. aeruginosa ATCC 10145; [13]
  LD90: 0.025 µg/mL
  LD100: 0.1 µg/mL
E. coli ATCC 11775; pH 5.5, 0.25% glucose
  LD90: 0.2 µg/mL
  LD100: >100 µg/mL
trypsin; n = 3
  digestion by trypsin: digest
Lys-C; 1 µg, 1 h 37 °C, SDS-PAGE, silver staining, at higher concentrations
  digestion by Lys C: sensitivity
collagenase
  digestion by collagenase: sensitivity

B2: PAD1-deiminated rHRNR2591-2684: Protein Arginine Deiminase 1 (PAD1)-deiminated rHRNR2591–2684, Arg citrullinated (protein, UniProt Q86YZ3 2591-2684, looked up, fragment)
chain: B1 chain
modifications: PAD1-deiminated, arginines citrullinated
notes: Protein Arginine Deiminase 1 (PAD1)-deiminated rHRNR2591–2684, Arg citrullinated
KLK1
  digestion by KLK1: digest
KLK7
  digestion by KLK7: digest
trypsin; n = 3
  digestion by trypsin: digest
Lys-C; 500 ng, 0.7 nM protease, pH 7.5, 15 h, Western blot
  digestion by LysC: digest

B3: rHRNR2576–2707: recombinant HRNR fragment (protein, UniProt Q86YZ3 2576-2707, looked up, fragment)
chain: GFGHHESSSGQSSSYSQHGSGSGHSSGYGQHGSRSGQSSRGERHGSSSGSSSHYGQHGSGSRQSSGHGRQGSGSGQSPSRGRHGSGLGHSSSHGQHGSGSGRSSSRGPYESRLGHSSVFGQHESGSGHSSAY
Enterokinase EKMax
  sensitivity towards enterokinase EKMax: highly sensitive
C. albicans ATCC 24433; pH 5.5, 0.25% glucose
  LD90: 0.55 µg/mL
  LD100: >140 µg/mL
P. aeruginosa ATCC 10145; [13]
  LD90: 0.035 µg/mL
  LD100: 0.275 µg/mL
thermolysin
  sensitivity towards thermolysin: highly sensitive
E. coli ATCC 11775; pH 5.5, 0.25% glucose
  LD90: 0.55 µg/mL
  LD100: >100 µg/mL
trypsin; 10 µg, 18 h 37 °C, 100 pg to 0,1 pg trypsin (not modified), SDS-PAGE and HRNR Western blot, n = 3
  sensitivity towards trypsin: highly sensitive
trypsin; 10 µg, 18 h 37 °C, SDS-PAGE and HRNR Western blot
  amount of unmodified trypsin that digests: 1 pg
Lys-C; 10 µg, 18 h 37 °C, 10 ng to 10 pg, SDS-PAGE and HRNR Western blot
  sensitivity towards Lys-C: highly sensitive
α-chymotrypsin
  sensitivity towards α-chymotrypsin: highly sensitive
